Source: patent US20260348977 (published 2026)

Assays:
non-sense peptide = target: T1, non-sense peptide; assay: competition (chemiluminescence ELISA)
T1 chain: DSGPEYADVV

elongated peptide = target: T2, elongated peptide (human); assay: competition (chemiluminescence ELISA)
T2 chain: WSLNPDTGLWE

truncated peptide = target: T3, truncated peptide (human); assay: competition (chemiluminescence ELISA)
T3 chain: LNPDTGLWE

[1] = target: T4, standard/selection peptide SLNPDTGLWE (CILP-M) (human); assay: competition (chemiluminescence ELISA, 20C, pH 7.4)
T4 chain: SLNPDTGLWE

binding result (non-sense peptide): no binding
binding result (elongated peptide): no binding
binding result (truncated peptide): no binding
IC50 [1]: 2 ng/mL
B1: NB326 #76 13B5-1C6-2C4 (antibody, V domains shown)
VH: QVQLQQSGPELVKPGASVRISCKASGYTFTNYYIHWVKQRPGQGLEWIGWISPGIVDTEYNEKFKNKATLTADKSSRTAYMQLSSLTSEDSAVYFCARRSAGSYGDFDYWGQGTTLTVSS
VL: DIVMTQSQKFMSTSVGDRVSVTCKASQNVGTDVVWYQQRPGQSPKALMYSASYRYSGVPDRFTGSGSGTDFTLTISNVQSEDLAEYFCQHYDNYPLTFGAGTKLELK
